Columns and labels:
[1] = biological target: T1, thrombin (human) (UniProt P00734+P00734); experiment: AFM; settings: Clotting: 20 mM Tris, 150 mM NaCl, 5 mM KCl, 1 mM MgCl2, 1 mM CaCl2, pH 7.4, 12 nM thrombin, 25 C, 5 min; AFM binding conditions not given in the material
[2] = biological target: T1, thrombin (human); experiment: fibrinogen clotting (light scattering); settings: Clotting: 20 mM Tris, 150 mM NaCl, 5 mM KCl, 1 mM MgCl2, 1 mM CaCl2, pH 7.4, 12 nM thrombin, 25 C, 5 min; AFM binding conditions not given in the material

Row | Substance | binding signal (% of origami with bound thrombin) [1] | binding signal (% inhibition of thrombin) [2]
1 | origami nanostructure IV (9 TBA15 + 9 HD22, ~5.4 nm) | 76 | –
2 | Aptarray (rectangular origami, 36 TBA15 + 36 HD22, 5.4 nm) | – | 98.3
